B1: CPEB3 Ribozyme (parent)
chain: UAACAGGGGGCCACAGCAGAAGCGUUCACGUCGCAGCCCCUGUCAGAUUCUGGUGAAUCUGCGAAUUCUGCUGUAUAUCUC

Variants of: B1
Assay: self-cleavage, relative activity (ratio to wild type); higher = more cleavage; in vitro, sequencing
Method in brief: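 For each CPEB3 ribozyme variant, relative activity is its cleaved/total read fraction divided by the unmutated ribozyme's. Barcoded error-prone PCR libraries were transcribed by T7 RNA polymerase (5 hours, 37°C) and held in DNase I for 15 min before an EDTA stop, with cleavage occurring throughout. Template-switching reverse transcription and Illumina sequencing were used to read the RNAs. A 5-read minimum applied, and results are the mean of three batches.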

Variant | self-cleavage
UAACAGGGGGCCACAGCUGAAGCGUUCACGUCGCAGCCCCUGUCAGAAUCUGGUGAAUCUGCGAAUUCUGCUGUAUAUCUC [A18U U48A] | 0.19
UAACAGGGGGCCACAGCUGAAGCGUUCACGUCGCAGCCCCUGUCAGACUCUGGUGAAUCUGCGAAUUCUGCUGUAUAUCUC [A18U U48C] | 0.28
UAACAGGGGGCCACAGCUGAAGCGUUCACGUCGCAGCCCCUGUCAGAUUCUGGUGAAUCUGCGAAUUCUUCUGUAUAUCUC [A18U G70U] | 0.21
UAACAGGGGGCCACAGCUGAAGCGUUCACGUCGCAGCCCCUGUCAGAUUCUGGUGAAUCUGCGAAUUCUGCUGUAUAACUC [A18U U78A] | 0.36
UAACAGGGGGCCACAGCUGAAGCGUUCACGUCGCAGCCCCUGUCAGAUUCUGGUGAAUCUGCGAAUUCUGCUGUAUACCUC [A18U U78C] | 0.38
UAACAGGGGGCCACAGCUGAAGCGUUCACGCCGCAGCCCCUGUCAGAUUCUGGUGAAUCUGCGAAUUCUGCUGUAUAUCUC [A18U U31C] | 0.26
UAACAGGGGGCCACAGCUGAAGCGUUCACGACGCAGCCCCUGUCAGAUUCUGGUGAAUCUGCGAAUUCUGCUGUAUAUCUC [A18U U31A] | 0.3
UAACAGGGGGCCACAGCUGAAGCGUUCACGGCGCAGCCCCUGUCAGAUUCUGGUGAAUCUGCGAAUUCUGCUGUAUAUCUC [A18U U31G] | 0.17
UAACAGGGGGCCACAGCUGAAGCGUUCACGUCGCAGCCCCUGUCAGAUUCUGGUGAAACUGCGAAUUCUGCUGUAUAUCUC [A18U U58A] | 0.19
UAACAGGGGGCCACAGCUGAAGCGUUCACGUCGCAGCCCCUGUCAGAUUCUGGUGAAGCUGCGAAUUCUGCUGUAUAUCUC [A18U U58G] | 0.03
UAACAGGGGGCCACAGCUGAAGCGUUCACGUCGCAGCCCCUGUCAGAUUCUGGUGAACCUGCGAAUUCUGCUGUAUAUCUC [A18U U58C] | 0.32
UAACAGGGGGCCACAGCAAAAGCGUUCGCGUCGCAGCCCCUGUCAGAUUCUGGUGAAUCUGCGAAUUCUGCUGUAUAUCUC [G19A A28G] | 0.2
UAACAGGGGGCCACAGCUGAAGCGUCCACGUCGCAGCCCCUGUCAGAUUCUGGUGAAUCUGCGAAUUCUGCUGUAUAUCUC [A18U U26C] | 0.26
UAACAGGGGGCCACAGCUGAAGCGUGCACGUCGCAGCCCCUGUCAGAUUCUGGUGAAUCUGCGAAUUCUGCUGUAUAUCUC [A18U U26G] | 0.07
UAACAGGGGGCCACAGCUGAAGCGUACACGUCGCAGCCCCUGUCAGAUUCUGGUGAAUCUGCGAAUUCUGCUGUAUAUCUC [A18U U26A] | 0.31
UAACAGGGGGCCACAGCUGAAGCGUUCACGUCGCAGCCCCUGUCAGAUUCUGGUGAAUCAGCGAAUUCUGCUGUAUAUCUC [A18U U60A] | 0.3
UAACAGGGGGCCACAGCUGAAGCGUUCACGUCGCAGCCCCUGUCAGAUUCUGGUGAAUCCGCGAAUUCUGCUGUAUAUCUC [A18U U60C] | 0.22
UAACAGGGGGCCACAGCAAAAGCGUUCACGUCGCAGCCCCUGUCAGAUUCUGGUGAAUCUGCGAGUUCUGCUGUAUAUCUC [G19A A65G] | 0.51
UAACAGGGGGCCACAGCUGAAGCGUUCACGUCGCAGCCCCUGUCAGAUCCUGGUGAAUCUGCGAAUUCUGCUGUAUAUCUC [A18U U49C] | 0.22
UAACAGGGGGCCACAGCUGAAGCGUUCACGUCGCAGCCCCUGUCAGAUACUGGUGAAUCUGCGAAUUCUGCUGUAUAUCUC [A18U U49A] | 0.38
UAACAGGGGGCCACAGCAAAAGCGUUCACGUCGCAGCCCCUGUCUGAUUCUGGUGAAUCUGCGAAUUCUGCUGUAUAUCUC [G19A A45U] | 0.07
UAACAGGGGGCCACAGCAAAAGCGUUCACGUCGCAGCCCCUGUCGGAUUCUGGUGAAUCUGCGAAUUCUGCUGUAUAUCUC [G19A A45G] | 0.25
UAACAGGGGGCCACAGCAAAAGCGUUCACGUCGCAGCCCCUGUCAGAUUCUGGUGAGUCUGCGAAUUCUGCUGUAUAUCUC [G19A A57G] | 0.26

Variant | self-cleavage
UAACAGGGGGCCACAGCUGAAGCGUUCACGUCGCAGCCCCAGUCAGAUUCUGGUGAAUCUGCGAAUUCUGCUGUAUAUCUC [A18U U41A] | 0.22
UAACAGGGGGCCACAGCUGAAGCGUUCACGUCGCAGCCCCCGUCAGAUUCUGGUGAAUCUGCGAAUUCUGCUGUAUAUCUC [A18U U41C] | 0.38
UAACAGGGGGCCACAGCUGAAGCGUUCACGUCGCAGCCCCUGUCAGAUUCUGGUGAAUCUGCGAAAUCUGCUGUAUAUCUC [A18U U66A] | 0.29
UAACAGGGGGCCACAGCUGAAGCGUUCACGUCGCAGCCCCUGUCAGAUUCUGGUGAAUCUGCGAACUCUGCUGUAUAUCUC [A18U U66C] | 0.29
UAACAGGGGGCCACAGCUGAAGCGUUCACGUCGCAGCCCCUGUCAGAUUCUGGUGAAUCUGCGAAUUCUGCUGAAUAUCUC [A18U U74A] | 0.62
UAACAGGGGGCCACAGCUGAAGCGUUCACGUCGCAGCCCCUGUCAGAUUCUGGUGAAUCUGCGAAUUCUGCUGCAUAUCUC [A18U U74C] | 0.61
UAACAGGGGGCCACAGCAAAAGCGUUCACGUCGCAGCCCCUGUCAGAUUCUGGUGAAUCUGCGGAUUCUGCUGUAUAUCUC [G19A A64G] | 0.21
UAACAGGGGGCCACAGCAAAUGCGUUCACGUCGCAGCCCCUGUCAGAUUCUGGUGAAUCUGCGAAUUCUGCUGUAUAUCUC [G19A A21U] | 0.1
UAACAGGGGGCCACAGCAAAAGCGUUCACGUCGCAGCCCCUGUCAGAUUCUGGUGAAUCUGCGAAUUCUGCUGUAUGUCUC [G19A A77G] | 0.3
UAACAGGGGGCCACAGCUGAAGCGUUCACGUCGCAGCCCCUGUCAGAUUCUGGCGAAUCUGCGAAUUCUGCUGUAUAUCUC [A18U U54C] | 0.32
UAACAGGGGGCCACAGCUGAAGCGUUCACGUCGCAGCCCCUGUCAGAUUCUGGGGAAUCUGCGAAUUCUGCUGUAUAUCUC [A18U U54G] | 0.34
UAACAGGGGGCCACAGCUGAAGCGUUCACGUCGCAGCCCCUGUCAGAUUCUGGAGAAUCUGCGAAUUCUGCUGUAUAUCUC [A18U U54A] | 0.54
UAACAGGGGGCCACAGCAAUAGCGUUCACGUCGCAGCCCCUGUCAGAUUCUGGUGAAUCUGCGAAUUCUGCUGUAUAUCUC [G19A A20U] | 0.11
UAACAGGGGGCCACAGCAAAAGCGUUCACGUCGCAGCCCCUGUCAGAUUCUGGUGGAUCUGCGAAUUCUGCUGUAUAUCUC [G19A A56G] | 0.2
UAACAGGGGGCCACAGCAAAAGCGUUCACGUCGCAGCCCCUGUCAGAUUCUGGUGUAUCUGCGAAUUCUGCUGUAUAUCUC [G19A A56U] | 0.12
UAACAGGGGGCCACAGCAAAAGCGUUCACGUCGCAGCCCCUGUCAGAUUCUGGUGAAUCUGCGAAUUCUGCUGUAUAUCUC [G19A] | 0.29
UAACAGGGGGCCACAGCUGAAGCGUUCACGUCGCAGCCCCUGUCAGAUUCUGGUGAAUCUGCGAAUUCUGCUCUAUAUCUC [A18U G73C] | 0.49
UAACAGGGGGCCACAGCUGAAGCGUUCACGUCGCAGCCCCUGUCAGAUUCUGGUGAAUCUGCGAAUUCUGCUAUAUAUCUC [A18U G73A] | 0.61
UAACAGGGGGCCACAGCUGAAGCGUUCACGUCGCAGCCCCUGUCAGAUUCUGGUGAAUCUGCGAAUUCUGCUGUACAUCUC [A18U U76C] | 0.39
UAACAGGGGGCCACAGCUGAAGCGUUCACGUCGCAGCCCCUGUCAGAUUCUGGUGAAUCUGCGAAUUCUGCUGUAGAUCUC [A18U U76G] | 0.3
UAACAGGGGGCCACAGCUGAAGCGUUCACGUCGCAGCCCCUGUCAGAUUCUGGUGAAUCUGCGAAUUCUGCUGUAAAUCUC [A18U U76A] | 0.36
UAACAGGGGGCCACAGCAAAAGCGUUCAGGUCGCAGCCCCUGUCAGAUUCUGGUGAAUCUGCGAAUUCUGCUGUAUAUCUC [G19A C29G] | 0.24
UAACAGGGGGCCACAGCUGAAGCGUUCACGUCGCAGCCCCUGGCAGAUUCUGGUGAAUCUGCGAAUUCUGCUGUAUAUCUC [A18U U43G] | 0.14

Variant | self-cleavage
UAACAGGGGGCCACAGCUGAAGCGUUCACGUCGCAGCCCCUGCCAGAUUCUGGUGAAUCUGCGAAUUCUGCUGUAUAUCUC [A18U U43C] | 0.26
UAACAGGGGGCCACAGCUGAAGCGUUCACGUCGCAGCCCCUGACAGAUUCUGGUGAAUCUGCGAAUUCUGCUGUAUAUCUC [A18U U43A] | 0.64
UAACAGGGGGCCACAGCUGAAGCGUUCACGUCGCAGCCCCUGUCAGAUUCUGGUGAAUCUGCGAAUUCUGCGGUAUAUCUC [A18U U72G] | 0.5
UAACAGGGGGCCACAGCUGAAGCGUUCACGUCGCAGCCCCUGUCAGAUUCUGGUGAAUCUGCGAAUUCUGCAGUAUAUCUC [A18U U72A] | 0.19
UAACAGGGGGCCACAGCUGAAGCGUUCACGUCGCAGCCCCUGUCAGAUUCUGGUGAAUCUGCGAAUUCUGCCGUAUAUCUC [A18U U72C] | 0.42
UAACAGGGGGCCACAGCAAAAGCGUUCACGUAGCAGCCCCUGUCAGAUUCUGGUGAAUCUGCGAAUUCUGCUGUAUAUCUC [G19A C32A] | 0.08
UAACAGGGGGCCACAGCUGAAGCGUUCACGUCGCAGCCCCUGUCAGAUUCUGGUGAAUCUGCGAAUUCUGCUGUAUAUCGC [A18U U80G] | 0.51
UAACAGGGGGCCACAGCUGAAGCGUUCACGUCGCAGCCCCUGUCAGAUUCUGGUGAAUCUGCGAAUUCUGCUGUAUAUCCC [A18U U80C] | 0.52
UAACAGGGGGCCACAGCUGAAGCGUUCACGUCGCAGCCCCUGUCAGAUUCUGGUGAAUCUGCGAAUUCUGCUGUAUAUCAC [A18U U80A] | 0.53
UAACAGGGGGCCACAGCAAAAGCGUUCACGUCGCAGCCCCUGUCAGAUUCUGGUGAAUCUGCGAAUUCUGCUGUGUAUCUC [G19A A75G] | 0.09
UAACAGGGGGCCACAGCUGAAGCGGUCACGUCGCAGCCCCUGUCAGAUUCUGGUGAAUCUGCGAAUUCUGCUGUAUAUCUC [A18U U25G] | 0.08
UAACAGGGGGCCACAGCUGAAGCGCUCACGUCGCAGCCCCUGUCAGAUUCUGGUGAAUCUGCGAAUUCUGCUGUAUAUCUC [A18U U25C] | 0.26
UAACAGGGGGCCACAGCUGAAGCGAUCACGUCGCAGCCCCUGUCAGAUUCUGGUGAAUCUGCGAAUUCUGCUGUAUAUCUC [A18U U25A] | 0.19
UAACAGGGGGCCACAGCUGAAGCGUUCACGUCGCAGCCCCUGUCAGAUUCUGGUGAAUCUGCGAAUUCAGCUGUAUAUCUC [A18U U69A] | 1.19
UAACAGGGGGCCACAGCUGAAGCGUUCACGUCGCAGCCCCUGUCAGAUUCUGGUGAAUCUGCGAAUUCGGCUGUAUAUCUC [A18U U69G] | 1.14
UAACAGGGGGCCACAGCUGAAGCGUUCACGUCGCAGCCCCUGUCAGAUUCUGGUGAAUCUGCGAAUUCCGCUGUAUAUCUC [A18U U69C] | 0.47
UAACAGGGGGCCACAGCAAAAGCGUUCACGUCGCUGCCCCUGUCAGAUUCUGGUGAAUCUGCGAAUUCUGCUGUAUAUCUC [G19A A35U] | 0.17
UAACAGGGGGCCACAGCUGAAGCGUUCACGUCGCAGCCCCUGUCAGAUUCCGGUGAAUCUGCGAAUUCUGCUGUAUAUCUC [A18U U51C] | 0.42
UAACAGGGGGCCACAGCUGAAGCGUUCACGUCGCAGCCCCUGUCAGAUUCAGGUGAAUCUGCGAAUUCUGCUGUAUAUCUC [A18U U51A] | 0.41
UAACAGGGGGCCACAGCUGAAGCGUUCACGUCGCAGCCCCUGUCAGAUUCUGGUGAAUCUGCGAAUACUGCUGUAUAUCUC [A18U U67A] | 0.21
UAACAGGGGGCCACAGCUGAAGCGUUCACGUCGCAGCCCCUGUCAGAUUCUGGUGAAUCUGCGAAUCCUGCUGUAUAUCUC [A18U U67C] | 0.26
UAACAGGGGGCCACAGCUGAAGCGUUCACGUCGCAGCCCCUGUCAGAUUCUGGUGAAUCUGCGAAUGCUGCUGUAUAUCUC [A18U U67G] | 0.19

Source: the RNAGym collection of RNA variant scans (doi:10.1093/nar/gkz1192)
